How the values were obtained:
[1] = test system: dorsal root ganglion cells (DRG cells); assay: Axon extension of cultured dorsal root ganglion cells; type: cell-based; details: DRG cells of 20-week-old wild-type mouse
Method: Dorsal root ganglion cells (DRG cells) were taken from a 20-week-old wild-type mouse. The dorsal root ganglion nerve cells thus taken were first subjected to extraction with Ham's 12 containing 30% Percoll, and then were cultured at 37° C. for 2 days with the use of a Gibco Neurobasal-A medium (manufactured by Gibco) supplemented with 2 mM GlutaMaxl, 2% B-27 w/o Vitamin A, 5 ng/mL recombinant BDNF carrier free, and 10 ng/mL recombinant human-beta NGF carrier free. Then, the culture medium was replaced with a medium supplemented with 2 mM GlutaMaxl, 2% B-27 w/o Vitamin A, 10 μM Retinoic Acidn, and 100 ng/mL recombinant human-beta NGF carrier free, and then a comparative observation of the extension of axons was carried out with a microscope (BZ-X710, manufactured by KEYENCE), and microscope images were taken.

[2] = test system: p-mTOR; assay: p-mTOR staining of angiokeratoma of Fabry disease patient before and after ERT; type: in vivo, human; details: p-mTOR fluorescent staining
Description: (§1) The activation state of mTOR in an angiokeratoma of a Fabry disease patient, and the effects of ERT (conventional treatment method to treat Fabry disease) on an angiokeratoma, were checked. An enzyme used in ERT of this test was agalsidase beta, and specific processes of the treatment method were based on usual dosages.
A piece of the skin of a Fabry disease patient including an angiokeratoma lesion was stained with an anti-p-mTOR antibody, and the activation state of mTOR was checked.

[3] = test system: angiokeratoma of Fabry disease patient; assay: Course of angiokeratomas of Fabry disease patient receiving ERT; type: in vivo, human; details: ERT over eight years
Description: as §1

Molecule | extension of axons [1] | mTOR activity in angiokeratoma after ERT [2] | effect on angiokeratomas [3]
BDNF: recombinant BDNF carrier free, brain-derived neurotrophic factor (protein, UniProt P23560 19-247, looked up) Neurotrophic factor BDNF …: APMKEANIRGQGGLAYPGVRTHGTLESVNGPKAGSRGLTSLADTFEHVIEELLDEDQKVRPNEENNKDADLYTSRVMLSSQVPLEPPLLFLLEEYKNYLDAANMSMRVRRHSDPARRGELSVCDSISEWVTAADKKTAVDMSGGTVTVLEKVPVSKGQLKQYFYETKCNPMGYTKEGCRGIDKRHWNSQCRTTQSYVRALTMDSKKRIGWRFIRIDTSCVCTLTIKRGR | axons were found to have extended | – | –
agalsidase beta (protein, UniProt P06280 32-429, looked up, agalsidase beta, enzyme replacement therapy; enzyme used was agalsidase beta, usual dosages) Alpha-galactosidase A: LDNGLARTPTMGWLHWERFMCNLDCQEEPDSCISEKLFMEMAELMVSEGWKDAGYEYLCIDDCWMAPQRDSEGRLQADPQRFPHGIRQLANYVHSKGLKLGIYADVGNKTCAGFPGSFGYYDIDAQTFADWGVDLLKFDGCYCDSLENLADGYKHMSLALNRTGRSIVYSCEWPLYMWPFQKPNYTEIRQYCNHWRNFADIDDSWKSIKSILDWTSFNQERIVDVAGPGGWNDPDMLVIGNFGLSWNQQVTQMALWAIMAAPLFMSNDLRHISPQAKALLQDKDVIAINQDPLGKQGYQLRQGDNFEVWERPLSGLAWAVAMINRQEIGGPRSYTIAVASLGKGVACNPACFITQLLPVKRKLGFYEWTSRLRSHINPTGTVLLQLENTMQMSLKDLL | – | mTOR is also active | not effective in treating angiokeratomas

— patent publication US20200338049A1, “AGENT FOR TREATING FABRY DISEASE, ANALGESIC FOR EXTERNAL USE AND PERSPIRATION ACCELERATOR” (OSAKA UNIVERSITY, priority 2016, published 2020)
